From the Immune Epitope Database (IEDB)

Legend:
HLA-B*15:03 = assay: IEDB peptide-MHC binding, purified MHC/competitive/radioactivity; filed as Kd, often an IC50 or EC50 that approximates it; ≥ and ≤ were set here for values at or beyond the usual limits of such assays
HLA-A*02:01 [1] = assay: as above
HLA-A*02:17 = assay: as above
HLA-A*02:06 = assay: as above
HLA-B*44:02 [2] = assay: as above
HLA-B*40:01 [3] = assay: as above
HLA-B*44:03 = assay: as above
HLA-A*11:01 = assay: IEDB peptide-MHC binding, purified MHC/direct/fluorescence; filed as Kd, often an IC50 or EC50 that approximates it; ≥ and ≤ were set here for values at or beyond the usual limits of such assays
HLA-B*44:02 [4] = assay: as above
HLA-A*02:01 [5] = assay: as above
HLA-A*01:01 = assay: as above
HLA-A*24:03 = assay: as above
HLA-B*58:01 = assay: as above
HLA-A*03:01 = assay: as above
HLA-B*40:01 [6] = assay: as above
HLA-B*07:02 = assay: as above
HLA-B*27:05 = assay: as above
HLA-B*08:01 [7] = assay: as above
HLA-A*69:01 = assay: as above
HLA-A*26:01 = assay: as above
HLA-A*23:01 = assay: IEDB peptide-MHC binding, purified MHC/competitive/radioactivity; filed as Kd, often an IC50 or EC50 that approximates it; ≥ and ≤ were set here for values at or beyond the usual limits of such assays
HLA-A*32:01 = assay: as above
HLA-B*46:01 = assay: IEDB peptide-MHC binding, purified MHC/competitive/fluorescence; filed as Kd, often an IC50 or EC50 that approximates it; ≥ and ≤ were set here for values at or beyond the usual limits of such assays
HLA-A*02:03 = assay: IEDB peptide-MHC binding, purified MHC/competitive/radioactivity; filed as Kd, often an IC50 or EC50 that approximates it; ≥ and ≤ were set here for values at or beyond the usual limits of such assays
HLA-A*30:01 = assay: as above; conditions: source organism: Vaccinia virus WR
HLA-B*15:01 [8] = assay: as above; conditions: source organism: Vaccinia virus WR
HLA-B*08:01 [9] = assay: as above
HLA-A*24:02 = assay: as above; conditions: source organism: Mammarenavirus tacaribeense
HLA-A*29:02 = assay: as above; conditions: source organism: Mammarenavirus tacaribeense
HLA-A*31:01 = assay: IEDB peptide-MHC binding, purified MHC/direct/fluorescence; filed as Kd, often an IC50 or EC50 that approximates it; ≥ and ≤ were set here for values at or beyond the usual limits of such assays; conditions: source organism: Yersinia pestis Nepal516
HLA-B*15:01 [10] = assay: as above; conditions: source organism: Yersinia pestis Nepal516
HLA-A*68:02 = assay: IEDB peptide-MHC binding, purified MHC/competitive/radioactivity; filed as Kd, often an IC50 or EC50 that approximates it; ≥ and ≤ were set here for values at or beyond the usual limits of such assays; conditions: source organism: Dengue virus 1 Brazil/97-11/1997
HLA-B*57:01 = assay: IEDB peptide-MHC binding, purified MHC/direct/fluorescence; filed as Kd, often an IC50 or EC50 that approximates it; ≥ and ≤ were set here for values at or beyond the usual limits of such assays; conditions: source organism: Vibrio vulnificus
HLA-B*48:01 = assay: as above; conditions: source organism: Escherichia coli O157:H7
HLA-B*08:02 = assay: as above
HLA-A*02:12 = assay: as above; conditions: source organism: dengue virus type 3
[11] = source organism: Vaccinia virus WR
[12] = source organism: Dengue virus 4 Philippines/H241/1956
[13] = source organism: Dengue virus 1 Brazil/97-11/1997
[14] = source organism: Dengue virus 3 Martinique/1243/1999
[15] = source organism: Vibrio parahaemolyticus
[16] = source organism: Dengue virus 3 Sri Lanka/1266/2000
[17] = source organism: Dengue virus 2 Jamaica/1409/1983
[18] = source organism: Dengue virus 2 Thailand/NGS-C/1944
[19] = source organism: Vaccinia virus Copenhagen
[20] = source organism: Yersinia pestis Nepal516
[21] = source organism: Dengue virus 1 Singapore/S275/1990
[22] = source organism: Listeria monocytogenes serotype 4b str. H7858
[23] = source organism: Dengue virus 3 China/80-2/1980

## FLSNCEKQF
HLA-B*15:03; [11]
  Kd: 21 nM

## SIILEFFLMV
HLA-A*02:01 [1]; [12]
  Kd: 9.85 nM
HLA-A*02:17; [12]
  Kd: 118 nM
HLA-A*02:06; [13]
  Kd: 15.7 nM

## MEEALKGLPI
HLA-B*44:02 [2]; [14]
  Kd: 338 nM
HLA-B*40:01 [3]; [14]
  Kd: 86.6 nM
HLA-B*44:03; [14]
  Kd: 205 nM

## QYDDLHKKF
HLA-A*11:01; [15]
  Kd: ≥ 20000 nM
HLA-B*44:02 [4]; [15]
  Kd: ≥ 20000 nM
HLA-A*02:01 [5]; [15]
  Kd: ≥ 20000 nM
HLA-A*01:01; [15]
  Kd: ≥ 20000 nM
HLA-A*24:03; [15]
  Kd: 62.6 nM
HLA-B*58:01; [15]
  Kd: ≥ 20000 nM
HLA-A*03:01; [15]
  Kd: ≥ 20000 nM
HLA-B*40:01 [6]; [15]
  Kd: ≥ 20000 nM
HLA-B*07:02; [15]
  Kd: ≥ 20000 nM
HLA-B*27:05; [15]
  Kd: ≥ 20000 nM
HLA-B*08:01 [7]; [15]
  Kd: ≥ 20000 nM
HLA-A*69:01; [15]
  Kd: ≥ 20000 nM
HLA-A*26:01; [15]
  Kd: ≥ 20000 nM

## LKYYYSNSY
HLA-B*15:03; [11]
  Kd: 0.242 nM

## ALFSGVSWVM
HLA-A*02:01 [1]; [16]
  Kd: 7.22 nM
HLA-A*02:17; [16]
  Kd: 686 nM

## HEMYWVSGV
HLA-B*44:02 [2]; [12]
  Kd: 51.5 nM

## SEIQLTDYGA
HLA-B*44:02 [2]; [13]
  Kd: 149 nM
HLA-B*40:01 [3]; [13]
  Kd: 972 nM
HLA-B*44:03; [13]
  Kd: 42.6 nM

## AAAWYLWEV
HLA-A*02:17; [17]
  Kd: 1420 nM
HLA-A*02:06; [17]
  Kd: 3.38 nM

## TLYAVATTF
HLA-A*23:01; [17]
  Kd: 134 nM
HLA-A*32:01; [17]
  Kd: 81.3 nM
HLA-B*46:01; [18]
  Kd: ≥ 20000 nM

## TEPEDIDCW
HLA-B*44:02 [2]; [12]
  Kd: 1140 nM

## FSILFSNNF
HLA-B*15:03; [11]
  Kd: 29.7 nM

## LILGAQALPV
HLA-A*02:01 [1]; [12]
  Kd: 54.4 nM
HLA-A*02:17; [12]
  Kd: 482 nM
HLA-A*02:06; [12]
  Kd: 18.3 nM

## LQMEDKAWLV
HLA-A*02:01 [1]; [17]
  Kd: 3.64 nM
HLA-A*02:17; [17]
  Kd: 119 nM
HLA-A*02:06; [17]
  Kd: 2.72 nM

## FHVRRLLKF
HLA-B*15:03; [19]
  Kd: 21.3 nM

## ISSRESVSF
HLA-B*15:03; [19]
  Kd: 12.1 nM

## LMMTTIGIV
HLA-A*02:03; source organism: Dengue virus 2 Peru/IQT2913/1996
  Kd: 0.9 nM
HLA-A*02:01 [1]; [18]
  Kd: 5.88 nM
HLA-A*02:17; [18]
  Kd: 183 nM

## EKTQYTNDF
HLA-A*30:01
  Kd: 1340 nM
HLA-B*15:03; [11]
  Kd: 832 nM
HLA-B*15:01 [8]
  Kd: 12700 nM
HLA-A*32:01; [11]
  Kd: ≥ 77800 nM
HLA-B*08:01 [9]; [11]
  Kd: ≥ 26700 nM

## LYGLITEQF
HLA-A*24:02
  Kd: 15.5 nM
HLA-A*29:02
  Kd: 2070 nM
HLA-A*23:01; source organism: Mammarenavirus tacaribeense
  Kd: 3.98 nM
HLA-A*24:03; source organism: Mammarenavirus machupoense
  Kd: 0.2 nM

## LSEEIGLDL
HLA-A*11:01; [20]
  Kd: ≥ 20000 nM
HLA-B*44:02 [4]; [20]
  Kd: ≥ 20000 nM
HLA-A*02:01 [5]; [20]
  Kd: ≥ 20000 nM
HLA-A*01:01; source organism: Yersinia pestis
  Kd: 6380 nM
HLA-A*24:03; [20]
  Kd: ≥ 20000 nM
HLA-A*31:01
  Kd: ≥ 20000 nM
HLA-B*58:01; [20]
  Kd: ≥ 20000 nM
HLA-A*03:01; [20]
  Kd: ≥ 20000 nM
HLA-B*40:01 [6]; [20]
  Kd: ≥ 20000 nM
HLA-B*07:02; [20]
  Kd: ≥ 20000 nM
HLA-B*27:05; [20]
  Kd: ≥ 20000 nM
HLA-B*15:01 [10]
  Kd: ≥ 20000 nM
HLA-B*08:01 [7]; [20]
  Kd: ≥ 20000 nM
HLA-A*69:01; [20]
  Kd: ≥ 20000 nM
HLA-A*26:01; [20]
  Kd: ≥ 20000 nM

## IMTSGVIPF
HLA-B*15:03; [19]
  Kd: 0.223 nM

## CMVICLLSF
HLA-B*15:03; [19]
  Kd: 641 nM

## ESVKFGNSI
HLA-B*15:03; [11]
  Kd: 102 nM

## KLVIFPSHL
HLA-B*15:03; [11]
  Kd: 1170 nM

## IKVTAASPM
HLA-B*15:03; [11]
  Kd: 2.76 nM

## EQKLRPNSF
HLA-A*30:01
  Kd: 1010 nM
HLA-B*15:03; [11]
  Kd: 1100 nM
HLA-B*15:01 [8]
  Kd: 8990 nM
HLA-A*32:01; [11]
  Kd: 12200 nM
HLA-B*08:01 [9]; [11]
  Kd: 6140 nM

## LVMAFIAFL
HLA-A*02:01 [1]; [21]
  Kd: 40.1 nM
HLA-A*68:02
  Kd: 21 nM
HLA-A*02:17; [21]
  Kd: 15.4 nM
HLA-A*02:06; [13]
  Kd: 14.3 nM

## ITNTEINSF
HLA-B*15:03; [11]
  Kd: 421 nM
HLA-A*32:01; [11]
  Kd: 413 nM

## MLLMLLPTAL
HLA-A*02:01 [1]; [21]
  Kd: 16.6 nM
HLA-A*02:17; [21]
  Kd: 78 nM
HLA-A*02:06; [13]
  Kd: 5.36 nM

## LAFSTRFSF
HLA-B*58:01; source organism: Vibrio vulnificus
  Kd: 144 nM
HLA-B*57:01
  Kd: 292 nM
HLA-B*46:01; source organism: Vibrio vulnificus YJ016
  Kd: 661 nM

## ILGAQALPV
HLA-A*02:01 [1]; [12]
  Kd: 32.7 nM
HLA-A*02:17; [12]
  Kd: 2550 nM

## RRHPMRLRK
HLA-B*27:05; source organism: Escherichia coli O157:H7
  Kd: 24.8 nM
HLA-B*48:01
  Kd: ≥ 20000 nM

## ALFSGVSWV
HLA-A*02:03; [14]
  Kd: 0.36 nM
HLA-A*02:17; [16]
  Kd: 452 nM
HLA-A*02:06; [14]
  Kd: 1.97 nM

## TLKRRSWPL
HLA-B*08:01 [9]; [14]
  Kd: 1.18 nM
HLA-B*08:02; source organism: dengue virus type 3
  Kd: 88 nM
HLA-A*02:12
  Kd: 4 nM

## VQHNIKHSF
HLA-B*15:03; [11]
  Kd: 0.203 nM

## HLKRRKEPL
HLA-B*08:01 [7]; [22]
  Kd: 16 nM
HLA-B*08:02; [22]
  Kd: 456 nM

## MVRLPYKDA
HLA-A*30:01
  Kd: 0.763 nM
HLA-B*15:03; [11]
  Kd: ≥ 29900 nM
HLA-B*15:01 [8]
  Kd: ≥ 50700 nM
HLA-A*32:01; [11]
  Kd: ≥ 77800 nM
HLA-B*08:01 [9]; [11]
  Kd: ≥ 77700 nM

## GMLWMADVPL
HLA-A*02:01 [1]; [23]
  Kd: 4.89 nM
HLA-B*08:01 [9]; source organism: Dengue virus 3 Singapore/8120/1995
  Kd: 1420 nM
HLA-A*02:17; [23]
  Kd: 65.3 nM

## IIIPLSVSI
HLA-A*30:01
  Kd: 1290 nM
HLA-B*15:03; [11]
  Kd: 1230 nM
HLA-B*15:01 [8]
  Kd: 298 nM
HLA-A*32:01; [11]
  Kd: 69.6 nM
HLA-B*08:01 [9]; [11]
  Kd: ≥ 31000 nM

## SNINDFNIF
HLA-B*15:03; [11]
  Kd: 501 nM

## AEMEEALRGL
HLA-B*44:02 [2]; [17]
  Kd: 17.6 nM
HLA-B*40:01 [3]; [17]
  Kd: 13 nM
HLA-B*44:03; [17]
  Kd: 31.6 nM

## KKMQSYNSV
HLA-B*15:03; [11]
  Kd: 2.81 nM
